Data reported in patent US20120135022A1.

Assays:
[1] = target: AAV2 capsid protein VP3 (AAV2) (UniProt P03135); test: cell-based or functional assay
[2] = target: AAV1 capsid protein VP3 (AAV1); test: cell-based or functional assay

Sequence of UniProt P03135 (P03135 203-735 limits assumed): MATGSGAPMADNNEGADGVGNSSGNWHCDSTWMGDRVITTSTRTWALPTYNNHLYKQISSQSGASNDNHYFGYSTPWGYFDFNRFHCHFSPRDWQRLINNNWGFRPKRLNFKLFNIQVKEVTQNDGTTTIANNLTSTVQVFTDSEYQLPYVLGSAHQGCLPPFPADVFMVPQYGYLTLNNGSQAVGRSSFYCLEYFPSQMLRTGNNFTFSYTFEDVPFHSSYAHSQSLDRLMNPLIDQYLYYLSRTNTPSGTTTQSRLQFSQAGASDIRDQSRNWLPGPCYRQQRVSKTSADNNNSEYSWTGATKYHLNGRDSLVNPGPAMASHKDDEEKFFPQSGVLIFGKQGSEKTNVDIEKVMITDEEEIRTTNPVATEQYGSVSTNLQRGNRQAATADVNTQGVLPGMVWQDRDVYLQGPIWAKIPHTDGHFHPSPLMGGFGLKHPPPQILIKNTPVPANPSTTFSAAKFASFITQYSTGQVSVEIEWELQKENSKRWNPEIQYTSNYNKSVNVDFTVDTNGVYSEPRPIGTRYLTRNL

C-terminally truncated AAP (AAPtru) of AAV2 expressed from pVP2N-gfp (from UniProt D5SGZ8 2-177)
Particle titer (AAV2 capsid ELISA) after trans-complementation [1]: 2.1e+11 | Particle titer (AAV1 capsid ELISA) after trans-complementation [2]: 3.4e+10
